Results reported in patent publication US20100189695.

Assays:
[1] = biological target: Tau protein (in bone marrow derived macrophages), P10637
NFATc4 = biological target: T1, NFATc4
T1 sequence (Q14934 1-902, species assumed, looked up): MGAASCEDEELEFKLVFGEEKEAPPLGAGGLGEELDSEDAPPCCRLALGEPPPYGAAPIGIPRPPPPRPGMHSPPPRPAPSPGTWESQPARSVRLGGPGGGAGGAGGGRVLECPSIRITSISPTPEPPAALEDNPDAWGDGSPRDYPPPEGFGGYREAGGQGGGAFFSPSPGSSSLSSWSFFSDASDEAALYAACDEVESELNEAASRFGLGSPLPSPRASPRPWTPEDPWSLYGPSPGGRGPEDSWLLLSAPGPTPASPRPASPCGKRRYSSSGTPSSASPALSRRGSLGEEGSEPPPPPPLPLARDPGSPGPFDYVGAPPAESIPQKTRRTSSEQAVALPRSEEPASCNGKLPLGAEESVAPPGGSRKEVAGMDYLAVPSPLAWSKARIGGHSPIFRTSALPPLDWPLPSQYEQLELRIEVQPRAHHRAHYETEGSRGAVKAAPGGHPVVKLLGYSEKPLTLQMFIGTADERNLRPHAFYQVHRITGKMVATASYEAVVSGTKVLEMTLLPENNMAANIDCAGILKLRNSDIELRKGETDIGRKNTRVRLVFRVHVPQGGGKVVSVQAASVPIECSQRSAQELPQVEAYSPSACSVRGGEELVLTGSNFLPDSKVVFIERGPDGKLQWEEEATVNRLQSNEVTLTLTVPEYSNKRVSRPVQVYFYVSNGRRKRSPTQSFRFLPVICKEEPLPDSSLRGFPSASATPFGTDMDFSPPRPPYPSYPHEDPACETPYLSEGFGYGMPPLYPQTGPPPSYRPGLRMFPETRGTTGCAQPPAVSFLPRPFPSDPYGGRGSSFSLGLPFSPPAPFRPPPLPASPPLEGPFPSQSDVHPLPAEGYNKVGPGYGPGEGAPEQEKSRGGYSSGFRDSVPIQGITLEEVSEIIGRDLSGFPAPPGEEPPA

[2] = biological target: Rac1 (murine BMDM cells), P63001

Sequence of Tau protein (in bone marrow derived macrophages), P10637 (P10637 whole entry, looked up): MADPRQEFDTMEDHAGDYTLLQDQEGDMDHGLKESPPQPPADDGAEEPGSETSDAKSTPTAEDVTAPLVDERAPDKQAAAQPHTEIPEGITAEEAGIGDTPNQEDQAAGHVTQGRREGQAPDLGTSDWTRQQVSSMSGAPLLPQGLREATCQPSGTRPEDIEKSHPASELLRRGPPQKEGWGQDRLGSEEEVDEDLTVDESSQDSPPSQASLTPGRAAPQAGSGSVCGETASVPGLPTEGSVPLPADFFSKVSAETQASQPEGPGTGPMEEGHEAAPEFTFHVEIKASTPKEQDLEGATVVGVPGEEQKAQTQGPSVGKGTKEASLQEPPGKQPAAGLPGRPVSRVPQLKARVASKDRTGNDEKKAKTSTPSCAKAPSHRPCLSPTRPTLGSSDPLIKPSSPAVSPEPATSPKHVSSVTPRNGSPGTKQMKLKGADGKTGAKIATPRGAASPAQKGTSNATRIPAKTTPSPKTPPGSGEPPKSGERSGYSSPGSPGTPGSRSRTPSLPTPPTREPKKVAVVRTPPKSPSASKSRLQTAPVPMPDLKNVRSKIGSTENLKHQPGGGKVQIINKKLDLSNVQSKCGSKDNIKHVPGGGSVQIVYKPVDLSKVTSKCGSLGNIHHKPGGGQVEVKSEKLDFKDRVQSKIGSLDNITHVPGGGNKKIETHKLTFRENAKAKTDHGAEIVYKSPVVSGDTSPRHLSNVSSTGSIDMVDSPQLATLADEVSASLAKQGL

B1: murine IRAK-1 (endogenous, wild type BMDM cells) (protein)
chain: MAGGPGPGEPVVPGAQHFLYEVPPWVMCRFYKVMDALEPADWCQFAALIVRDQTELRLCERSEQRTASVLWPWINRNARVADLVHILTHLQLLRARDIITAWHPPAPVVPPSTAAPRPSSISAGSEAGDWSPRKLQSSASTFLSPAFPGSQTHSESELLQVPLPVSLGPPLPSSAPSSTKSSPESPVSGLQRAHPSPFCWPFCEISQGTCNFSEELRIGEGGFGCVYRAVMRNTTYAVKRLKEEADLEWTMVKQSFLTEVEQLSRFRHPNIVDFAGYCAESGLYCLVYGFLPNGSLEDQLHLQTQACSPLSWPQRLDILLGTARAIQFLHQDSPSLIHGDIKSSNVLLDERLMPKLGDFGLARFSRFAGAKASQSSTVARTSTVRGTLAYLPEEYIKTGRLAVDTDTFSFGVVILETLAGQRAVRTQGAKTKYLKDLIEDEAEEAGVTLKSTQPTLWVGVATDAWAAPIAAQIYKKHLDSRPGPCPPQLGLALAQLACCCMHRRAKKRPPMTQVYKRLEGLQAGPPWELEVAGHGSPSPQENSYMSTTGSAQSGDEPWQPLVVTTRAPAQAAQQLQRSPNQPVESDESVPGLSATLHSWHLTPGSHPSPASFREASCTQGGTTRESSVRSSPGFQPTTMEGSPTGSSSLLSSEPPQIIINPARQKMVQKLALYEEGVLDSLQLLSSGFFPGLDLEPEKSQGPEESDEFQS
[1]
  phosphorylated Tau (PHF-Tau) by Western blot after BLP (Pam3CSK4) treatment: stimulation of wild type cells led to increased Tau phosphorylation. In contrast, Tau phosphorylation is ablated in IRAK-1 deficient cells
NFATc4
  phosphorylated NFATc4 (p-NFATc4) by Western blot: p-NFATc4 was found in the wild type cells (Panel B, lanes 1-3) whereas significantly less was found in the IRAK-1 deficient cells
[2]
  Rac1 activity (PBD pull down assay) after LPS treatment for 5 min: relative Rac1 activity is significantly higher in LPS-induced wild type macrophages and not in IRAK-1 deficient macrophages
